Target: Her2 on the Her2-positive breast cancer cell line SKBR3 (UniProt P04626)
Assay: cell-based or functional assay

trastuzumab-MMAF conjugates (trastuzumab-HC136-MMAF) (antibody)
cytotoxicity (cell killing, Cell Titer-Glo viability) on SKBR3 cells, EC50: 0.043 to 0.071 nM

From patent US20160257946A1
